{
  "source": "paper PMC7614096",
  "about": "“Head-to-tail polymerization by VEL proteins underpins cold-induced Polycomb silencing in flowering control” (Cell Reports, 2022)",
  "binders": {"B1": {"name": "6xHisLip-VIN3VEL I575D (ITC) (domain or fragment, Arabidopsis thaliana, UniProt Q9FIE3 529-603, looked up)", "chain": "GDKDLGHIVKTIRCLEEEGHIDKSFRERFLTWYSLRATHREVRVVKDFVETFMEDLSSLGQQLVDTFSESILSKR", "notes": "VEL domain of VIN3, Arabidopsis thaliana, Q9FIE3, I575D; residues 529-603 by the methods' rule for pLipK-VIN3VEL ('unless specified otherwise'); also called VIN3VEL tail mutant; source: E. coli BL21(DE3) pRARE2, purified (Ni-NTA, SEC); not shown: 6xHis, N-terminal, kept; lipoyl (Lip) solubility tag, N-terminal, kept"}, "B2": {"name": "VIN3VEL I575D, untagged (domain or fragment, Arabidopsis thaliana, UniProt Q9FIE3 529-603, looked up)", "chain": "GDKDLGHIVKTIRCLEEEGHIDKSFRERFLTWYSLRATHREVRVVKDFVETFMEDLSSLGQQLVDTFSESILSKR", "modifications": "selenomethionine (labelling for phasing, crystals)", "notes": "VEL domain of VIN3, Arabidopsis thaliana, Q9FIE3, I575D; also called VIN3 I575D; VIN3VEL tail mutant; source: E. coli BL21(DE3) pRARE2, purified (Ni-NTA, TEV cleavage, SEC); not shown: 6xHis, N-terminal, cleaved"}, "B3": {"name": "VIN3VEL RR>AD (R554A R556D), residues 529–603, untagged (domain or fragment, Arabidopsis thaliana, UniProt Q9FIE3 529-603, looked up)", "chain": "GDKDLGHIVKTIRCLEEEGHIDKSFAEDFLTWYSLRATHREVRVVKIFVETFMEDLSSLGQQLVDTFSESILSKR", "modifications": "selenomethionine (labelling for phasing, crystals); 13C-15N double-labeled (NMR)", "notes": "VEL domain of VIN3, Arabidopsis thaliana, Q9FIE3, residues 529-603, R554A R556D; Used for the crystal structure 7O6U and, as 'untagged RR>AD', for NMR; also called VIN3 R554A R556D; VIN3VEL head mutant; source: E. coli BL21(DE3) pRARE2, purified (Ni-NTA, TEV cleavage, SEC); not shown: 6xHis, N-terminal, cleaved"}, "B4": {"name": "VEL1VEL I664D, residues 616–692, untagged (domain or fragment, Arabidopsis thaliana, UniProt Q9SUM4 616-692, looked up)", "chain": "GGTESGLEHCVKIIRQLECSGHIDKNFRQKFLTWYSLRATSQEIRVVKDFIDTFIDDPMALAEQLIDTFDDRVSIKR", "modifications": "selenomethionine (labelling for phasing)", "notes": "VEL domain of VEL1, Arabidopsis thaliana, Q9SUM4, residues 616-692, I664D; also called VEL1 I664D; source: E. coli BL21(DE3) pRARE2, purified (Ni-NTA, TEV cleavage, SEC); not shown: 6xHis, N-terminal, cleaved"}, "B5": {"name": "Lip-VIN3VEL (residues 500–603), wild type (domain or fragment, Arabidopsis thaliana, UniProt Q9FIE3 500-603, looked up)", "chain": "GKQGGNKRFKSRTVSLNEKPEINNAANGVGDKDLGHIVKTIRCLEEEGHIDKSFRERFLTWYSLRATHREVRVVKIFVETFMEDLSSLGQQLVDTFSESILSKR", "notes": "VEL domain of VIN3, Arabidopsis thaliana, Q9FIE3, residues 500-603; also called WT domain; source: E. coli BL21(DE3) pRARE2, purified (Ni-NTA, SEC); not shown: lipoyl (Lip) solubility tag, N-terminal, kept"}, "B6": {"name": "Lip-VEL1VEL (residues 589–692), wild type (domain or fragment, Arabidopsis thaliana, UniProt Q9SUM4 589-692, looked up)", "chain": "SDEIKNRQARIEISMKDNCNNGDHSANGGTESGLEHCVKIIRQLECSGHIDKNFRQKFLTWYSLRATSQEIRVVKIFIDTFIDDPMALAEQLIDTFDDRVSIKR", "notes": "VEL domain of VEL1, Arabidopsis thaliana, Q9SUM4, residues 589-692; source: E. coli BL21(DE3) pRARE2, purified (Ni-NTA, SEC); not shown: lipoyl (Lip) solubility tag, N-terminal, kept"}},
  "key": {"[1]": {"target": "T1, 6xHisLip-VIN3VEL RR>AD (ITC) (Arabidopsis thaliana, UniProt Q9FIE3 529-603, R554A | R556D)", "T1 construct": "VEL domain of VIN3, Arabidopsis thaliana, Q9FIE3, R554A R556D; residues 529-603 by the methods' rule for pLipK-VIN3VEL ('unless specified otherwise'); also called VIN3VEL head mutant; source: E. coli BL21(DE3) pRARE2, purified (Ni-NTA, SEC); not shown: 6xHis, N-terminal, kept; lipoyl (Lip) solubility tag, N-terminal, kept", "T1 sequence (looked up)": "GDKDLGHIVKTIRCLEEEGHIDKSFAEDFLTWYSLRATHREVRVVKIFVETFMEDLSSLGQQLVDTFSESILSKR", "assay": "ITC; 25°C; 1 mM 6xHisLip-VIN3VEL I575D injected into 100 μM 6xHisLip-VIN3VEL RR>AD; 25 mM Tris pH 7.4, 200 mM NaCl, 0.5 mM DTT, 0.06% NaN3; head-to-tail interface between a head mutant and a tail mutant", "details": "both partners purified"}, "[2]": {"target": "B3", "assay": "NMR titration; 300 μM 13C-15N VEL RR>AD with 100 μM unlabeled VEL I575D; peak heights in 1H-15N fast-HSQC spectra; 25 mM phosphate pH 6.7, 150 mM NaCl, 283 K", "details": "both partners purified"}, "[3]": {"target": "the molecule itself", "assay": "crystal structure; untagged VEL domains bearing polymerization-deficient point mutations, 4–25 mg/mL, sitting-drop vapor diffusion at 18°C; SAD with selenomethionine"}, "[4]": {"target": "the molecule itself", "assay": "SEC-MALS; Superdex200 10/300 GL in PBS with 1 mM DTT; increasing protein concentrations (2 mg/mL unless stated otherwise); self-association"}},
  "data": [
    {"binder": "B1", "values": [
      {"measurement": "Kd", "setting": "[1]", "value": 1160, "unit": "nM"}
    ]},
    {"binder": "B2", "values": [
      {"measurement": "binding result", "setting": "[2]", "value": "binds"},
      {"measurement": "binding result", "setting": "[3]", "value": "binds"}
    ]},
    {"binder": "B3", "values": [
      {"measurement": "binding result", "setting": "[3]", "value": "binds"}
    ]},
    {"binder": "B4", "values": [
      {"measurement": "binding result", "setting": "[3]", "value": "binds"}
    ]},
    {"binder": "B5", "values": [
      {"measurement": "stoichiometry N", "setting": "[4]", "value": "~9 -mer"}
    ]},
    {"binder": "B6", "values": [
      {"measurement": "stoichiometry N", "setting": "[4]", "value": "> 20 -mer"}
    ]}
  ]
}
